Source: the Human Domainome abundance scans (Beltran et al. 2025)

B1: Zinc finger homeobox protein 4, residues 2183 to 2238; numbered along this chain, Q86UP3 (parent)
chain: SSRTRFTDYQLRVLQDFFDTNAYPKDDEIEQLSTVLNLPTRVIVVWFQNARQKARK

Variants of: B1
Test: abundance fitness (aPCA) (normalised: wild type 0, dead -1); higher = more abundant; growth selection in yeast, the domain comes from the species named
Details: Homo sapiens

Abundance fitness: each site, then its substitutions
N37: H -0.282, W -0.569, L -0.156
N21: T -0.027, V -0.279, W -0.556, Y -0.565
Y23: I -0.219, N -0.369, C -0.228, S 0.032, E 0.361, V -0.039, T -0.093, Q -0.173, L 0.008, P -0.345, W -0.061, G -0.169, M 0.031, F -0.084, A -0.097, R 0.047, D 0.313
P39: D 0.093, M -0.69, H 0.154, W -1.22, E -0.037, K -0.245, L -0.962, C -0.063, T -0.041, Q -0.095, S -0.062, R -0.097, N -0.127, A -0.153, G 0.014, V -0.766, Y -0.701, F -1.1
A22: Y -0.309, L -0.219, E -0.016, W -0.169, S 0.074, M 0.153, V -0.086, G -0.186, I -0.065, N -0.077, R 0.005, Q 0.005, F -0.228, P 0.133, C 0.033, D 0.002, K -0.116
T40: I 0.591, N -0.546, S -0.213, P -0.254
D26: P -0.193, W -0.047, G 0.005, A 0.003, N -0.114, V -0.048, S -0.049, C -0.255, Q -0.031, I -0.427, Y -0.234, R -0.05, K 0.067, H -0.021, L -0.257, E -0.163, F -0.087, T -0.071, M -0.056
T34: P -0.347, W -0.244, M -0.145, G -0.134, E -0.165, A -0.049, C -0.106, R -0.069, S -0.066, L -0.004, F 0.062, Y -0.061, K 0.045, D -0.162, Q -0.128, I -0.256, N -0.183, H 0.049
E30: P -0.463, N -0.166, W -0.366, M 0.201, Q 0.175, R 0.031, G 0.059, K -0.154, T -0.046, D 0.08, Y -0.366, F -0.132, C -0.18, H 0.008, I -0.221, V -0.119, L -0.057
L32: T -1.05, W -0.399, F -0.207, N -0.683, Q -0.751, P -0.797, E -0.723, K -0.735, C -0.548, A -0.659, G -0.973, Y -0.118, M -0.019, D -0.531, H -1.12, I -0.156, S -0.924, V -0.235, R -0.861
L36: M -0.157, G -0.318, D -0.933, V 0.03, C 0.008, W -0.842, Q -0.877, T 0.045, E -1.19, K -0.794, R -0.811, H -0.701, Y -0.8, A -0.098, N -0.801, F -0.407
K25: L -0.233, N -0.156, M -0.323, S -0.025, R -0.047, E -0.455, V -0.068, A -0.203, F -0.467, W -0.387, C -0.111, Y -0.76, G -0.072, P -0.244, D -0.177
